Columns and labels:
Assay in all cases: cell-based or functional assay
[1] = biological target: CDK2/cyclinA(h) (human) (UniProt P24941)
[2] = biological target: T1, CHK1(h) (human) (UniProt O14757)
T1 sequence (looked up): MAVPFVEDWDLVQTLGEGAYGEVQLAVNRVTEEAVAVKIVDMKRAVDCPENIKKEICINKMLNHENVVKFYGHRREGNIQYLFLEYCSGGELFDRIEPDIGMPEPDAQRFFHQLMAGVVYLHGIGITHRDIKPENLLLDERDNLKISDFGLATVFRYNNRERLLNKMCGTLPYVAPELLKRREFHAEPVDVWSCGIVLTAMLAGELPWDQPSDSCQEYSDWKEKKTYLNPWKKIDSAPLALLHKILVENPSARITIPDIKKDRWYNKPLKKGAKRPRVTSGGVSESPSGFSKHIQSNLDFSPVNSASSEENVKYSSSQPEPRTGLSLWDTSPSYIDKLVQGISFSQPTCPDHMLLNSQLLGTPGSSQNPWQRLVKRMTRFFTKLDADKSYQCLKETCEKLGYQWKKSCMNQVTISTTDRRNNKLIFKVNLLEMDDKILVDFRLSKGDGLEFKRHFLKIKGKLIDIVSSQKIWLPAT

[3] = biological target: CaMKIIδ(h) (human) (UniProt Q13557)
Sequence of CaMKIIδ(h) (human) (Q13557 whole entry, stated change not applied): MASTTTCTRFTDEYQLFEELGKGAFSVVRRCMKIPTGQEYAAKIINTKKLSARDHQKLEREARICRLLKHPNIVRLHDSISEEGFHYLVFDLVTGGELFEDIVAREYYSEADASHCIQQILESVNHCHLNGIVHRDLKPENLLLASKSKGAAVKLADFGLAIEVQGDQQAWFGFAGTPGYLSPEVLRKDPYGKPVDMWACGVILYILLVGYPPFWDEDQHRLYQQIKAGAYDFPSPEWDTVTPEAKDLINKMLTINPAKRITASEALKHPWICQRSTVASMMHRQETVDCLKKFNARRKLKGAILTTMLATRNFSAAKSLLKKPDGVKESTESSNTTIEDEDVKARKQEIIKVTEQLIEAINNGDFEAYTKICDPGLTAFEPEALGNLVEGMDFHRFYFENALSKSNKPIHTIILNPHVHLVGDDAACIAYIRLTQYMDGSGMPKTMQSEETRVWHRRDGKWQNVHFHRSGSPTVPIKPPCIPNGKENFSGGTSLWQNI

[4] = biological target: CaMKIδ(h) (human) (UniProt Q8IU85)
[5] = biological target: EGFR(L858R)(h) (human) (UniProt P00533)
[6] = biological target: EphB3(h) (human) (UniProt P54753)
Sequence of EphB3(h) (human) (P54753 581-998 limits assumed): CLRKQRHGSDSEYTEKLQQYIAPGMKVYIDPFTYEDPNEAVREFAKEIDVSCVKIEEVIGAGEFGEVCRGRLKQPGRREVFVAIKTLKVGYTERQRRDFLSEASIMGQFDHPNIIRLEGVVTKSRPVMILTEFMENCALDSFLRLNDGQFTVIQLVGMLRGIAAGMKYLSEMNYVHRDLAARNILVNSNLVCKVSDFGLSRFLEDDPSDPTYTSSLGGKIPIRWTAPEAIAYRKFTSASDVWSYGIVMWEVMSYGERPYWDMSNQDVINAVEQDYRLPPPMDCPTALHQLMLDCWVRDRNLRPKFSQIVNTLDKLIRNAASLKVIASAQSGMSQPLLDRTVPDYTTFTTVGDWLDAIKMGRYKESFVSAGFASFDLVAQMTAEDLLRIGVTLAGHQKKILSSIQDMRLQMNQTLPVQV

[7] = biological target: FAK(h) (human) (UniProt Q05397)
[8] = biological target: FGFR3(h) (human) (UniProt P22607)
Sequence of FGFR3(h) (human) (P22607 397-806 limits assumed): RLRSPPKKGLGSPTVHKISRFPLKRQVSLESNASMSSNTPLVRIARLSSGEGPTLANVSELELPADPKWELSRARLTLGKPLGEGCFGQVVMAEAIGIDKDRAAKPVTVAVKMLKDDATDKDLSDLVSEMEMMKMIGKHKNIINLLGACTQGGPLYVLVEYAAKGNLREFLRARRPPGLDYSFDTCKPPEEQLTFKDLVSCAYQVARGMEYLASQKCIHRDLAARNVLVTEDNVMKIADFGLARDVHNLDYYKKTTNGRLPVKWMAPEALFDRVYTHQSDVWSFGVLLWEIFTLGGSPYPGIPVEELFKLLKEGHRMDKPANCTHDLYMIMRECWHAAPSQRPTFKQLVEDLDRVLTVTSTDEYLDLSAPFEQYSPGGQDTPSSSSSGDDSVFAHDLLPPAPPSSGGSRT

[9] = biological target: FGFR4(h) (human) (UniProt P22455)
Sequence of FGFR4(h) (human) (P22455 460-802 limits assumed): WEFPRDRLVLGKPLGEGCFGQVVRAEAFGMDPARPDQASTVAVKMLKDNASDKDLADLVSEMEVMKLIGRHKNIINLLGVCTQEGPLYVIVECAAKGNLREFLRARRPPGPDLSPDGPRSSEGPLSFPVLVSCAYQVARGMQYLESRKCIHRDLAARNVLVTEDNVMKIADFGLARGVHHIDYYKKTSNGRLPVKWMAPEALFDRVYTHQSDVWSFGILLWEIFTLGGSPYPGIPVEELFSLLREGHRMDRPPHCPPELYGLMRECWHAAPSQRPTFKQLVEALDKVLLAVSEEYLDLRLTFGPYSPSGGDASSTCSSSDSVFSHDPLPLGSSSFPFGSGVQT

[10] = biological target: HIPK1(h) (human) (UniProt Q86Z02)
Sequence of HIPK1(h) (human) (Q86Z02 158-555 limits assumed): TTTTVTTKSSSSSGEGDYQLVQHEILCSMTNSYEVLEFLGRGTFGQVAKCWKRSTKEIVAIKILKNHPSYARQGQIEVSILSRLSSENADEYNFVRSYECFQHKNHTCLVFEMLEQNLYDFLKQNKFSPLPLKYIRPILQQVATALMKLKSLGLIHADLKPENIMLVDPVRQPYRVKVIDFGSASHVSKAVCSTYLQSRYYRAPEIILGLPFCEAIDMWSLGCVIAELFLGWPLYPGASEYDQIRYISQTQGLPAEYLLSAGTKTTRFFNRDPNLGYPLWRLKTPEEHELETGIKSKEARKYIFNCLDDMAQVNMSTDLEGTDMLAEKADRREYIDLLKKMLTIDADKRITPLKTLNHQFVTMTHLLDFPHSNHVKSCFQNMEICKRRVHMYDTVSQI

[11] = biological target: JNK3(h) (human) (UniProt P53779)
[12] = biological target: KDR(h) (human) (UniProt P35968)
[13] = biological target: Met(D1246N)(h) (human) (UniProt P08581)
[14] = biological target: MuSK(h) (human) (UniProt O15146)
Sequence of MuSK(h) (human) (O15146 517-869 limits assumed): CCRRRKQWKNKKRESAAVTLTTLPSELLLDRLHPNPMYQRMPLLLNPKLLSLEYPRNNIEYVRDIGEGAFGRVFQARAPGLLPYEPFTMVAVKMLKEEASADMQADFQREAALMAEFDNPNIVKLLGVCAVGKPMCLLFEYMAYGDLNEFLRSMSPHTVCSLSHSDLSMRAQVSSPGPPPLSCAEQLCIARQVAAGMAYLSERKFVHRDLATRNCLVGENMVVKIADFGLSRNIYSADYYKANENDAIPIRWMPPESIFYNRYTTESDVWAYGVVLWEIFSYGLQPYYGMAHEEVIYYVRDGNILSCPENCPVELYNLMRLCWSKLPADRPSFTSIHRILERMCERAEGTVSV

[15] = biological target: PAK5(h) (human) (UniProt Q9P286)
[16] = biological target: PKA(h) (human) (UniProt P17612)
[17] = biological target: PKCγ(h) (human) (UniProt P05129)
[18] = biological target: PKCθ(h) (human) (UniProt Q04759)
Sequence of PKCθ(h) (human) (Q04759 whole entry): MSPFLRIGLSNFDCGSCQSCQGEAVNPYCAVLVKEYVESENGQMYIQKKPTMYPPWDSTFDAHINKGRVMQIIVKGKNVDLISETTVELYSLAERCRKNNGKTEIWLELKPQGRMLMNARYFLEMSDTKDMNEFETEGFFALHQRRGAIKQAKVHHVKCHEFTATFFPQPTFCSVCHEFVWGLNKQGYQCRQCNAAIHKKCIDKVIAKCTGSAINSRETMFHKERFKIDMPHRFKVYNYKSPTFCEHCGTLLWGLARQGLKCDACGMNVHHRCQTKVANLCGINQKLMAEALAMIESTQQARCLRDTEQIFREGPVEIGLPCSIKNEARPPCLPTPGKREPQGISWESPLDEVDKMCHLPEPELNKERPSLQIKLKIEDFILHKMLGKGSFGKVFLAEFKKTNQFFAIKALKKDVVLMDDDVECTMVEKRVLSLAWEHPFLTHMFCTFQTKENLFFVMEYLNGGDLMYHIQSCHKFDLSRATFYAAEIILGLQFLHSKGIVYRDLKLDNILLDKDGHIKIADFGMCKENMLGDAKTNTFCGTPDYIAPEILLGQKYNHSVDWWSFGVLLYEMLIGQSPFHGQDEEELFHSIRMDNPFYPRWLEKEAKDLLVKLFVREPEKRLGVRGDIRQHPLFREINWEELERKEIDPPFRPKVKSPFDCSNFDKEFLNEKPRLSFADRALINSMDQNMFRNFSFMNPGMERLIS

[19] = biological target: PKG1α(h) (human) (UniProt Q13976)
Sequence of PKG1α(h) (human) (Q13976 whole entry): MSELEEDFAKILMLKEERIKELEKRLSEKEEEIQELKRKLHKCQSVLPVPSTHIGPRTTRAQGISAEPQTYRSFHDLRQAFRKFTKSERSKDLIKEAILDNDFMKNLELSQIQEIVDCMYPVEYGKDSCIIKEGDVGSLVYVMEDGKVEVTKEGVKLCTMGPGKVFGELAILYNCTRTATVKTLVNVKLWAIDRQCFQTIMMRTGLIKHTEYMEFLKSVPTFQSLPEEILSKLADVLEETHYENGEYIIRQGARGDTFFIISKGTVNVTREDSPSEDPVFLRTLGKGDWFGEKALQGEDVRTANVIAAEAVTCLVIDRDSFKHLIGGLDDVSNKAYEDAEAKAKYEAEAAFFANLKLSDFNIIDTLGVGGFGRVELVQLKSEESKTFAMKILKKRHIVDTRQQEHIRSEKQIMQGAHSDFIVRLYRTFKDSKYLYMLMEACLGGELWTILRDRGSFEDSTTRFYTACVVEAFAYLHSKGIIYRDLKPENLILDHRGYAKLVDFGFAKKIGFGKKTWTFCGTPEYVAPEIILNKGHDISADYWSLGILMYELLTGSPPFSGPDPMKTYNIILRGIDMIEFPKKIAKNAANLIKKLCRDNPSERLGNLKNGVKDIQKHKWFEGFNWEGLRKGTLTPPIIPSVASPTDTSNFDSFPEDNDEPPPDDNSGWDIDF

[20] = biological target: Pim-1(h) (human) (UniProt P11309)
[21] = biological target: Pim-3(h) (human) (UniProt Q86V86)
[22] = biological target: T2, Rse(h) (human) (UniProt Q06418)
T2 sequence (looked up): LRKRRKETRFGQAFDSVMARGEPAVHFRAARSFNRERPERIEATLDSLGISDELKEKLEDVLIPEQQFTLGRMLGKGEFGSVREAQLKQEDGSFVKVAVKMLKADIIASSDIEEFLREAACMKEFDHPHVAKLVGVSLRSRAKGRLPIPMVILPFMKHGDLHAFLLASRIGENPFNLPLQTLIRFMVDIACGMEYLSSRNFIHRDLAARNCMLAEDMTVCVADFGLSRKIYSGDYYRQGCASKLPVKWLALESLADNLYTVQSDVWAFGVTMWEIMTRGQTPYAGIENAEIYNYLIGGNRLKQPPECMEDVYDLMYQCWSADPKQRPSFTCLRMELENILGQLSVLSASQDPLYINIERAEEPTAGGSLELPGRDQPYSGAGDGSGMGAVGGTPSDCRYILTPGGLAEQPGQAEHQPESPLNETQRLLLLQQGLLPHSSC

[23] = biological target: Rsk4(h) (human) (UniProt Q9UK32)
[24] = biological target: SIK(h) (human) (UniProt P57059)
[25] = biological target: T3, TAO3(h) (human) (UniProt Q9H2K8)
T3 sequence (looked up): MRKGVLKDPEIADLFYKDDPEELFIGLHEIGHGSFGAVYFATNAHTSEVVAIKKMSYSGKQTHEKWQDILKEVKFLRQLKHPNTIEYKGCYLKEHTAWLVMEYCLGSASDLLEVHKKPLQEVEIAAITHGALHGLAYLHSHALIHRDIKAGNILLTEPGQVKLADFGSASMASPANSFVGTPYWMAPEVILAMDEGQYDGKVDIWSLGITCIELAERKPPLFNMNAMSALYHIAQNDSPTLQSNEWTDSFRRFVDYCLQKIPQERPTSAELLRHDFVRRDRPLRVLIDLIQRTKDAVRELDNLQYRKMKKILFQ

[26] = biological target: T4, ULK3(h) (human) (UniProt Q6PHR2)
T4 sequence (looked up): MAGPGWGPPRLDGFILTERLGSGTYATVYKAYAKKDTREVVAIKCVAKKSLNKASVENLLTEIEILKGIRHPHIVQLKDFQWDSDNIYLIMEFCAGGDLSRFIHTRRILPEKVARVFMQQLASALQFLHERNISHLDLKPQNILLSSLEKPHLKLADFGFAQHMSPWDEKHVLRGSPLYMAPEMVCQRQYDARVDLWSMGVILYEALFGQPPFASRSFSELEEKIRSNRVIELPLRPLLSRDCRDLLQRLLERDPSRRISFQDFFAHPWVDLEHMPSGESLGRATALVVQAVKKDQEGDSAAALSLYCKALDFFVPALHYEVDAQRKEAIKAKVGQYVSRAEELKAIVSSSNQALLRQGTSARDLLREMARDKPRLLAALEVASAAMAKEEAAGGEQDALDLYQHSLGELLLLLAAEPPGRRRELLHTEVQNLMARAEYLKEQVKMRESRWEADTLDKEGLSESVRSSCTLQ

[27] = biological target: ZAP-70(h) (human) (UniProt P43403)
[28] = biological target: p70S6K(h) (human) (UniProt P23443)

- % activity, 100 µM [1]: 87%
- % activity, 100 µM [2]: 65%
- % activity, 100 µM [3]: 1%
- % activity, 100 µM [4]: 0%
- % activity, 100 µM [5]: 26%
- % activity, 100 µM [6]: 79%
- % activity, 100 µM [7]: 94%
- % activity, 100 µM [8]: 10%
- % activity, 100 µM [9]: 3%
- % activity, 100 µM [10]: 47%
- % activity, 100 µM [11]: 171%
- % activity, 100 µM [12]: 15%
- % activity, 100 µM [13]: 90%
- % activity, 100 µM [14]: 27%
- % activity, 100 µM [15]: 125%
- % activity, 100 µM [16]: 118%
- % activity, 100 µM [17]: 6%
- % activity, 100 µM [18]: 62%
- % activity, 100 µM [19]: 25%
- % activity, 100 µM [20]: 0%
- % activity, 100 µM [21]: 37%
- % activity, 100 µM [22]: 63%
- % activity, 100 µM [23]: 29%
- % activity, 100 µM [24]: 40%
- % activity, 100 µM [25]: 12%
- % activity, 100 µM [26]: 177%
- % activity, 100 µM [27]: 1%
- % activity, 100 µM [28]: 3%
Substance: MMI-0500 (peptide)

Reference: patent US20140072613A1, “Compositions and Methods for Treating Cutaneous Scarring” (priority 2012, published 2014)
